Data published in article doi:10.1101/2025.11.02.686180.
Like-named read-outs stand apart in the source and are kept apart here.

Experiments:
[1] = target: T1, SARS-CoV-2 nucleocapsid protein (NP) (SARS-CoV-2, UniProt P0DTC9 1-419); assay: MST
[2] = target: T1, SARS-CoV-2 nucleocapsid protein (NP); assay: MST; remark: listed apart in the source
thrombin (Tb) [3] = target: T2, thrombin (Tb) (UniProt P00734;P00734 328-363;364-622); assay: 0.1 ng/mL thrombin
[4] = target: T3, Tau441 (longest isoform of tau) (human, UniProt P10636-8 1-441); assay: competition
thrombin (Tb) [5] = target: T2, thrombin (Tb); assay: thrombin 0.02-20 pg/mL in water
[6] = target: T3, Tau441 (longest isoform of tau); assay: competition; remark: listed apart in the source

B1: Nor-Apt (ssDNA)
DNA: GCTGGATGTCGCTTACGACAATATTCCTTAGGGGCACCGCTACATTGACACATCCAGC
modifications: 3' C3 spacer
binding result [1]: binds

B2: N9-Apt (ssDNA)
DNA: CGCTTACGACAATATTCCTTAGGGGCACCGCTACATTGACACATCCAGC
modifications: 3' C3 spacer
binding signal [2]: > 5 fold affinity vs Nor-Apt | binding result (thrombin (Tb) [3]): no binding | binding result [4]: no binding

B3: thrombin aptamer 29 nt (ssDNA)
DNA: AGTCCGTGGTAGGGCAGGTTGGGGTGACT
modifications: 3' C3 spacer
binding result (thrombin (Tb) [5]): binds

B4: Tau aptamer (core) (ssDNA)
DNA: CCTGTCAGGTCTTTGACGAGGCTTTTCTTC
modifications: 3' C3 spacer
binding result [6]: binds
